Reference: article PMC6947424, “New Targeted Gold Nanorods for the Treatment of Glioblastoma by Photodynamic Therapy” (Journal of Clinical Medicine, 2019)
No end group written: not given here. *: point of attachment. Pyropheophorbide(a) = C=Cc1c(C)c2cc3nc(c4c5[nH]c(cc6nc(cc1[nH]2)C(C)=C6CC)c(C)c5C(=O)C4)[C@@H](CCC(=O)*)[C@@H]3C; Hexanoyl(6-maleimido) = O=C1C=CC(=O)N1CCCCCC(=O)*

How the values were obtained:
[1] = in toluene; ref [72]; cited from earlier work
Description: Fluorescence quantum yields (Φf) were determined using a tetraphenyl porphyrin (TPP) solution as the fluorescence standard (Φf = 0.11 in toluene, taking into account solvent refractive index and absorption efficiencies. For the direct determination of ^1O2 quantum yield (ΦΔ), excitation was performed with a Xe-arc, the light was separated in a SPEX 1680, 0.22 µm double monochromator. Detection at 1270 nm was carried out through a PTI S/N 1565 monochromator and the emission was monitored by a liquid nitrogen cooled Ge-detector (EO-817L, North Coast Scientific Co, OH, USA). Rose Bengal (R ... || These findings are also consistent with the Φf value of Pyro reported by other authors (Φf = 0.3 and in methanol). […] This property can serve in the ...

[2] = UV-vis absorption; assay type: physicochemical; details: ethanol, Soret band
Description: (§1) The setup and the protocol to evaluate the photophysical characterizations including the absorption, fluorescence, and singlet oxygen emission spectra in addition to the fluorescence and singlet oxygen lifetimes have been previously described by our team. The absorption spectra were recorded on a UV-3600 UV–vis double beam spectrophotometer (Shimadzu, Marne La Vallée, France) in the wavelength range of 200-800 nm. The measurements were performed on the molecules dispersed in ethanol in quartz cuvettes with an optical path of 10 mm. The fluorescence spectra were recorded on a Horiba Jobin Yvon Fluorolog-3 (FL3-222) spectrofluorimeter equipped with a 450W xenon lamp, a thermostated cell compartment (25 °C), a R928 (Hamamatsu, Massy, France) UV–vis photomultiplier and a liquid nitrogen cooled InGaAs infrared detector (DSS-16A020L Electro-Optical System Inc., Phoenixville, PA, USA). The excitation spectrometer used is a SPEX double grating monochromator (1200 grooves per mm blazed at 330 nm). The fluorescence was measured using the UV–vis detector through a SPEX double grating monochromator (600 grooves per mm blazed at 500 nm). The singlet oxygen production was measured using the IR detector through a SPEX double grating monochromator (600 grooves per mm blazed at 1 μm).
The photophysical properties at the different synthetic stages of the hybrid AuNRs@PEG-MI-K(Pyro)DKPPR-OH, including the peptide derivatives as intermediates, were studied and compared to that of free Pyro. These properties include the UV-vis absorption, the florescence emission (quantum yield (Φf) and lifetime (τf)) and the ^1O2 production (quantum yield (ΦΔ) and lifetime (τΔ)). To determine these properties, the optical density (OD) of the Soret band of the Pyro component (412 nm) was adjusted at about 0.2. Controls, such as TPP dissolved in toluene, as a standard for fluorescence emission, and RB dissolved in ethanol, as a standard for ^1O2 production, were used. Ethanol was chosen to dissolve the studied molecules since it is a convenient solvent for the detection of fluorescence and ^1O2 emission. […]

[3] = Singlet oxygen production (quantum yield and lifetime); assay type: physicochemical; details: ethanol
Description: as §1
(§2) Fluorescence quantum yields (Φf) were determined using a tetraphenyl porphyrin (TPP) solution as the fluorescence standard (Φf = 0.11 in toluene, taking into account solvent refractive index and absorption efficiencies. For the direct determination of ^1O2 quantum yield (ΦΔ), excitation was performed with a Xe-arc, the light was separated in a SPEX 1680, 0.22 µm double monochromator. Detection at 1270 nm was carried out through a PTI S/N 1565 monochromator and the emission was monitored by a liquid nitrogen cooled Ge-detector (EO-817L, North Coast Scientific Co, OH, USA). Rose Bengal (RB) was chosen as a reference solution because of its high ^1O2 quantum yield in EtOH (ΦΔ = 0.68). The absorbance value at the excitation wavelengths (412 nm) of both the reference and the sample solutions were set to approximately 0.2 by dilution. The samples were all prepared in ethanol.
The quantum yield of singlet oxygen production is determined by the equation (2):(2) ΦΔ=ΦΔ0×I/I0×[…] where ΦΔ and ΦΔ0, I and I0, DO and DO0 are the luminescence quantum yields of singlet oxygen, the luminescence intensities and the optical densities of the sample and reference, respectively.
(§3) Fluorescence lifetimes were measured by Time-Correlated Single Photon Counting (TCSPC) using for excitation a pulsed laser diode LDH-P-C-405 coupled with a PDL 800-D driver (both from PicoQuant GmbH, Berlin, Germany) emitting at 408 nm (FWHM < 70 ps, 1 MHz) and an SPCM-AQR-15 avalanche photodiode (EG & G, Vaudreuil, Canada) coupled with a 650 nm (±10 nm) interference long-wave pass filter as the detection system. The acquisition system was a PicoHarp 300 module with a PHR-800 four-channel router (both from PicoQuant GmbH, Berlin, Germany). Fluorescence decays were recorded using the single photon counting method (four optical faced quartz cells for pure products in ethanol). Data were collected, and up to 1000 counts were accumulated in the maximum channel and analyzed using Fluofit TCSPC software (PicoQuant GmbH, Berlin, Germany) based on iterative reconvolution using a Levensberg-Marquandt algorithm. Singlet oxygen lifetime measurements have been performed on a TEMPRO-01 spectrophotometer (Horiba Jobin Yvon, Palaiseau, France). The apparatus was composed of a pulsed diode excitation source SpectraLED-415 emitting at 415 nm, a cuvette compartment, a Seya–Namioka type emission monochromator (600–2000 nm), and an H10330-45 near-infrared photomultiplier tube with a thermoelectric cooler (Hamamatsu, Massy, France) as the detection system. The system was monitored by a single photon counting controller FluoroHub-B and the software DataStation and DAS6 (Horiba Jobin Yvon, Palaiseau, France). […]

[4] = Fluorescence emission (quantum yield and lifetime); assay type: physicochemical; details: ethanol
Description: as §1, §2
The quantum yield of fluorescence is determined by the equation (1):(1) Φf=Φf0×If/If0×[…]×(n/n0)^2 where Φf and Φf0, If and If0, DO and DO0, n and n0 are the quantum yields, intensities, optical densities and refraction indices of the sample and reference, respectively.
as §3

[5] = in EtOH; ref [73]; cited from earlier work
Description: Fluorescence quantum yields (Φf) were determined using a tetraphenyl porphyrin (TPP) solution as the fluorescence standard (Φf = 0.11 in toluene, taking into account solvent refractive index and absorption efficiencies. For the direct determination of ^1O2 quantum yield (ΦΔ), excitation was performed with a Xe-arc, the light was separated in a SPEX 1680, 0.22 µm double monochromator. Detection at 1270 nm was carried out through a PTI S/N 1565 monochromator and the emission was monitored by a liquid nitrogen cooled Ge-detector (EO-817L, North Coast Scientific Co, OH, USA). Rose Bengal (R ...

[6] = molecular target: T1, recombinant NRP-1 protein (neuropilin-1) (UniProt O14786 22-856); assay: ELISA; competition; NRP-1 coated on 96 well plate at 2 μg/mL in PBS overnight at room temperature, blocked with PBS 0.5 % BSA; 5 ng/mL biotinylated VEGF-A165 in blocking buffer with 2 μg/mL heparin, with different peptide concentrations of competitor, 2 h at room temperature; streptavidin-HRP, OD 450 nm; details: both partners purified
T1 construct: Neuropilin-1 (NRP-1), recombinant protein bought from Bio-Techne; Coated on the ELISA plate; also called neuropilin-1 receptor; NPR-1; source: bought: Bio-Techne
T1 sequence (looked up): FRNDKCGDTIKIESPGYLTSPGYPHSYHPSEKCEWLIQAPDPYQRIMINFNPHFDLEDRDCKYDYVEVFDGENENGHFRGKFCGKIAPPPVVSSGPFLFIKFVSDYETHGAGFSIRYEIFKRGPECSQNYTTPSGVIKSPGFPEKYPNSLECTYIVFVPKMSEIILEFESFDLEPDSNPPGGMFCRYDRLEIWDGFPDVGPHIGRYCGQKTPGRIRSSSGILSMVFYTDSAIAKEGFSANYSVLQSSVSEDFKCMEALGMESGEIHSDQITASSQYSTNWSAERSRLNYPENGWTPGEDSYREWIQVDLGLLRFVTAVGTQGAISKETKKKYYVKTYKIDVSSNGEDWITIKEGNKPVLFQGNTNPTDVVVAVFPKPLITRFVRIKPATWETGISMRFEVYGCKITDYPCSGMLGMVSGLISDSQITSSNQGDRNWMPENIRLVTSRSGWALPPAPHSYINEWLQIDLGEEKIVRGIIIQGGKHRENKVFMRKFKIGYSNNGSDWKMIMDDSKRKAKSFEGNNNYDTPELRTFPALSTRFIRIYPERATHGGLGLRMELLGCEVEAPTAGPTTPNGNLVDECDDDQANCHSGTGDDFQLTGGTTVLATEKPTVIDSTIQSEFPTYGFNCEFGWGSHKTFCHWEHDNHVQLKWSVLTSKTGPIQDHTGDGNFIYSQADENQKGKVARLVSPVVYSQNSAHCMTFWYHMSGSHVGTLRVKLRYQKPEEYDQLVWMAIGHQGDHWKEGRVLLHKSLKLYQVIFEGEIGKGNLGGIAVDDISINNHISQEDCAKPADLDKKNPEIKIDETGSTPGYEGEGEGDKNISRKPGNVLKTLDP

C1=Cc2nc1c(-c1ccccc1)c1nc(c(-c3ccccc3)c3ccc([nH]3)c(-c3ccccc3)c3ccc([nH]3)c2-c2ccccc2)C=C1 [TPP, tetraphenyl porphyrin]
Φf of fluorescence standard [1]: 0.11

H-K(Pyro)DKPPR-OH [DKPPR peptide extended with Pyro-bearing lysine, free N-terminus]
λmax [2]: 412 nm
τΔ (singlet oxygen lifetime) [3]: 14 μs
ΦΔ (singlet oxygen quantum yield) ([3]; excitation 412 nm, detection 1270 nm, Rose Bengal as reference): 0.44
τf (fluorescence lifetime) ([4]; TCSPC, single exponential fit): 6.8 ns
Φf (fluorescence quantum yield) ([4]; excitation 412 nm, TPP in toluene as standard, 25 °C): 0.34

O=C([O-])c1c(Cl)c(Cl)c(Cl)c(Cl)c1-c1c2cc(I)c(=O)c(I)c-2oc2c(I)c([O-])c(I)cc12.[Na+].[Na+] [Rose Bengal]
ΦΔ of singlet oxygen reference [5]: 0.68

B1: H-KDKPPR-OH peptide (peptide)
peptide: H-KDKPPR-OH
notes: free peptide with free N-terminus (H-) and free C-terminal acid (-OH), developed by the authors' team to target NRP-1; also called free KDKPPR peptide; source: synthetic peptide
IC50 [6]: 2 µM

B2: MI-K(Pyro)DKPPR-OH (peptide)
peptide: {Hexanoyl(6-maleimido)}-K(Pyropheophorbide(a))DKPPR-OH
SMILES: C=Cc1c(C)c2cc3nc(c4c5[nH]c(cc6nc(cc1[nH]2)C(C)=C6CC)c(C)c5C(=O)C4)[C@@H](CCC(=O)NCCCC[C@H](NC(=O)CCCCCN1C(=O)C=CC1=O)C(=O)N[C@@H](CC(=O)O)C(=O)N[C@@H](CCCCN)C(=O)N1CCC[C@H]1C(=O)N1CCC[C@H]1C(=O)N[C@@H](CCCNC(=N)N)C(=O)O)[C@@H]3C
notes: KDKPPR peptide; first lysine bears Pyro on its side chain and MI on its alpha-amine; free C-terminal acid; also called PP-PS conjugate; peptide-photosensitizer conjugate; source: synthetic peptide (Fmoc/tBu solid phase, preparative HPLC)
IC50 [6]: 1.5 µM

B3: AuNRs@PEG-MI-K(Pyro)DKPPR-OH (other)
peptide: K(Pyropheophorbide(a))DKPPR-OH
modifications: not fully specified (N-terminus); printed as AuNRs@PEG-MI-K(Pyro)DKPPR-OH; also: MI joined by thioether to AuNRs@PEG-SH
notes: KDKPPR peptide of m4, grafted through its N-terminal maleimide onto the surface of PEGylated gold nanorods; Many peptide copies on each nanorod (multivalent); 1 mg/mL of the nanorods holds 257.7 µM of peptide; also called hybrid AuNRs; functionalized AuNRs
IC50 [6]: 1.1 µM
